Our source for the IC50 values is the Immune Epitope Database (IEDB).

Among the targets are HLA-A*02:01; HLA-A*02:02; HLA-A*02:03; HLA-A*02:06; HLA-A*68:02.
Holding throughout (assay): IEDB peptide-MHC binding, purified MHC/competitive/radioactivity; ≥ and ≤ were set here for values at or beyond the usual limits of such assays
The mark [1] stands for this setting: source organism: Hepacivirus hominis.
Setting [2] is: source organism: Vaccinia virus WR.
Setting [3] is: source organism: Influenza A virus.

On to YMLFTKFFYL, for which the IC50 was 5.1 nM with HLA-A*02:01 (source organism: SARS-CoV1); 48 nM in the test with HLA-A*02:02 (source organism: SARS-CoV1); 46 nM in the test with HLA-A*02:03 (source organism: SARS-CoV1); 20 nM with HLA-A*02:06 (source organism: SARS-CoV1); 9.9 nM with HLA-A*68:02 (source organism: SARS-CoV1).

As to YMLVLAEALI, the IC50 with HLA-A*02:01 (setting [1]) turned out to be 152 nM; with HLA-A*02:02 (setting [1]), 107 nM; in the test with HLA-A*02:03 (setting [1]) it was 228 nM; with HLA-A*02:06 (setting [1]), 512 nM; in the test with HLA-A*68:02 (setting [1]), 974 nM.

Take YMSNLFDIPL: the IC50 with HLA-A*02:01 (setting [2]) was 18 nM; with HLA-A*02:02 (setting [2]), 19 nM; in the test with HLA-A*02:03 (setting [2]), 10 nM; with HLA-A*02:06 (setting [2]), 127 nM; with HLA-A*68:02 (setting [2]), 471 nM.

For the sequence YMVTDKTAYI, the IC50 with HLA-A*02:01 (setting [2]) came out at 4.8 nM; in the test with HLA-A*02:02 (setting [2]), 0.23 nM; in the test with HLA-A*02:03 (setting [2]) it was 0.28 nM; with HLA-A*02:06 (setting [2]), 6.1 nM; with HLA-A*68:02 (setting [2]), 1.5 nM.

YNAELLVLL: the IC50 worked out at 609 nM with HLA-A*02:01 (setting [3]); 118 nM with HLA-A*02:02 (setting [3]); 1790 nM in the test with HLA-A*02:03 (setting [3]); 474 nM with HLA-A*02:06 (setting [3]); 44 nM in the test with HLA-A*68:02 (setting [3]).

Turning to YQCGHYTHI, the IC50 with HLA-A*02:01 (source organism: SARS-CoV1) was 20 nM; with HLA-A*02:02 (source organism: SARS-CoV1), 72 nM; in the test with HLA-A*02:03 (source organism: SARS-CoV1) it was 15 nM; with HLA-A*02:06 (source organism: SARS-CoV1) it was 9.2 nM; with HLA-A*68:02 (source organism: SARS-CoV1), 2920 nM.

For the sequence YQSFLFWFL, the IC50 with HLA-A*02:01 (setting [2]) stood at 0.76 nM; with HLA-A*02:02 (setting [2]), 0.38 nM; in the test with HLA-A*02:03 (setting [2]), 2.5 nM; in the test with HLA-A*02:06 (setting [2]), 40 nM; with HLA-A*68:02 (setting [2]), 87 nM.

For the sequence YSMAGNWAKV, the IC50 with HLA-A*02:01 (setting [1]) was found to be 175 nM; with HLA-A*02:02 (setting [1]), 75 nM; in the test with HLA-A*02:03 (setting [1]) it was 17 nM; with HLA-A*02:06 (setting [1]) it was 425 nM; with HLA-A*68:02 (setting [1]) it was 28 nM.

On to YTISSESLV, for which the IC50 in the test with HLA-A*02:01 (setting [2]) is 1060 nM; with HLA-A*02:02 (setting [2]) it was 522 nM; with HLA-A*02:03 (setting [2]) it was 38 nM; with HLA-A*02:06 (setting [2]) it was 54 nM; with HLA-A*68:02 (setting [2]), 3.3 nM.

YTLLGCWSFV: the IC50 in the test with HLA-A*02:01 (setting [1]) was determined as 435 nM; with HLA-A*02:02 (setting [1]), 555 nM; in the test with HLA-A*02:03 (setting [1]), 169 nM; with HLA-A*02:06 (setting [1]), 146 nM; with HLA-A*68:02 (setting [1]), 182 nM.

As to YTVEFDRDKV, the IC50 with HLA-A*02:01 (setting [2]) is 934 nM; in the test with HLA-A*02:02 (setting [2]) it was 83 nM; with HLA-A*02:03 (setting [2]), 154 nM; with HLA-A*02:06 (setting [2]) it was 22 nM; with HLA-A*68:02 (setting [2]), 4.5 nM.

With YVGDTSMMVI, the IC50 with HLA-A*02:01 (setting [2]) amounted to 803 nM; with HLA-A*02:02 (setting [2]) it was 408 nM; with HLA-A*02:03 (setting [2]), 220 nM; with HLA-A*02:06 (setting [2]), 324 nM; with HLA-A*68:02 (setting [2]), 72 nM.

Take YVHEGVSYEV: the IC50 with HLA-A*02:01 (setting [2]) worked out at 83 nM; with HLA-A*02:02 (setting [2]), 13 nM; in the test with HLA-A*02:03 (setting [2]), 71 nM; with HLA-A*02:06 (setting [2]) it was 9.1 nM; in the test with HLA-A*68:02 (setting [2]), 14 nM.

Take YVILKDPRI: the IC50 came to 778 nM with HLA-A*02:01 (setting [2]); 1550 nM in the test with HLA-A*02:02 (setting [2]); 203 nM in the test with HLA-A*02:03 (setting [2]); 12 nM with HLA-A*02:06 (setting [2]); 847 nM with HLA-A*68:02 (setting [2]).

With YVIPDELIDV, the IC50 came to 23 nM in the test with HLA-A*02:01 (setting [2]); 18 nM in the test with HLA-A*02:02 (setting [2]); 14 nM with HLA-A*02:03 (setting [2]); 12 nM in the test with HLA-A*02:06 (setting [2]); 350 nM in the test with HLA-A*68:02 (setting [2]).

For YVSPTEMVDV, the IC50 was found to be 21 nM in the test with HLA-A*02:01 (setting [2]); 63 nM with HLA-A*02:02 (setting [2]); 50 nM in the test with HLA-A*02:03 (setting [2]); 5.2 nM in the test with HLA-A*02:06 (setting [2]); 235 nM with HLA-A*68:02 (setting [2]).

YVSVMNFIPI: the IC50 in the test with HLA-A*02:01 (setting [2]) was 127 nM; in the test with HLA-A*02:02 (setting [2]) it was 341 nM; with HLA-A*02:03 (setting [2]), 152 nM; with HLA-A*02:06 (setting [2]) it was 0.11 nM; with HLA-A*68:02 (setting [2]), 55 nM.

On to YVVVHGYFT, for which the IC50 amounted to 1070 nM with HLA-A*02:01 (source organism: SARS-CoV1); 342 nM with HLA-A*02:02 (source organism: SARS-CoV1); 792 nM with HLA-A*02:03 (source organism: SARS-CoV1); 171 nM with HLA-A*02:06 (source organism: SARS-CoV1); 212 nM with HLA-A*68:02 (source organism: SARS-CoV1).
